According to a protein production outcome set (Wang et al. 2014):

Test: label from the status in PepcDB records
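Further: failed if final PepcDB status was selected cloned or expressed and not failed if soluble or beyond.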

## MGEMENIIYSIYHPTILVGFAIGILSLLAIGFQKNDLHALILTDVVECAMLIIIAGVGTDLAEALILPGLVVSLAELLAVSEVLITRKYLKSKRPKPKSYKLFEEFKLPLYTGELKYDIHMEILKTSPKFLAIILIVYGAILSGFTGGAVIATGLLFYALSQRVIGVEISEELKTMWEGISGLSGIAWALWIFGFIGFFVFPDKWLLCLLMAGLGLVIKVGSKLGLIGYIGEVR
  protein production: failed

## MERVGTPEEERQAGPVLPTSLESDSSKRTSWGFLITGVVGGALLTVYAVATPFITPALRKVCLPFVPATSKQVENVVRMLRHRRGPLVDIGSGDGRIVIAAAKEGFPAVGYELNPWLVWYSRYRAWRAGVHGSAKFYISDLWKVTFAQYSNVVIFGVPQMMPQLEKKLELELEDGARVIACRFPFPRWTPDHTTGEGIDTVWAYDMSAQRGRGGRPNQEWVGQKNLSETAGLQASSSETRSKLLDVE
  protein production: failed

## MATRNALRIVSRRFSSGKVLSEEERAAENVFIKKMEQEKLQKLARQGPGEQAAGSASEAKVAGATASASAESGPKVSEDKNRNYAVVAGVVAIVGSIGWYLKAGGKKQPEVQE
  protein production: failed

## MDTVILITVIIVIVGLAFDFINGFHDIANAVATSISTRALKPRVAIGIAAVMNFLGAISFTGVAESLTKSIVDPFSLNNGEFVVLCGLIAAVIWNLMTWLVGMPSSSSHALIGAIAGASIASASSFSVLNWSGFTTIIIALIISPIIGFTVGYLIYSLFKHLFHDKKLGKMNRRFRFIQIGTAAAQAYSHGTNDAQKTMGIITLALVASGLLKESAGIPFWVQVSCAASMAIGSSVGGYRIIKTVGTKIMKITPVTGVASDLSSLSVIMTATLIHLPVSTTQVIDSSIMGVGTANHKKEVNWRTGKNMVVTWFITLPLAGLLAAVVYWISAAIFL
  protein production: failed

## MSEFTRVFNYKIKLIIAISLFFTQLISANASVEVNISVEQPEHHLANVELKFEQVNESKVNFYLPTWRTGRYETLNLANGIREFIAQDSQGNVLSWHKIDKNTWQVSDAKNKKITLTYQVYANQLAKRTRHIDDSHAFLDSSAVVMYSQASRSSEHIVQLSVPKLWKSFSGLESGNNSHQFIAHDYDQLVDSPIESGINEHYQFSVDNRQYELVIWGEGNYDSAKMVKDLQILVKQSKHVWQGYPFKRYVFMVHATSGARGATEHVNSTIIQRSRFKFSTRKDYLSFIAVAAHEFVHTWNVKQYRPKGIVPYDYQQENYSNLLWLVEGSTSYLQYQLLLRGNLMTTDEFFTALAKRITAHAHKPGKESQSVAQASFDAWISEGGDYGNNHSVNIYSEGFLASWLLDFDILAKTALSKSYRNAHNQLYQQHRLPKGYDEQDVLSILEQITGDDYQVWWQKNIQGTTKINFNRLLAKAGLKMSYAKNVKDKSSEQSKVWTGLKTKLDNHDLIVSSVEKNSPAWDAGLTTEDVIVAIDGLRLLDNELDNRLKDFKPKQTITVTYFRRDKLITSRLKLAAIPKNKLKIIPIAKASVEQKAFFKAWMGVDFPEKK
  protein production: failed

## MAATTNFTKSMLFPFSHVSGNASLNSQRRTWPKQYKSKNGYRSLRVNGLFGGGNKDNNSEDGQSKAGIFGNMQNMYETVKKAQMVVQVEAVRVQKELAAAEFDGYCAGELVKVTLSGNQQPIRTDITEAAMELGSEKLSQLVTEAYKDAHAKSVVAMKERMSDLAQSLGMPPGLSEGMK
  protein production: failed

## MKNFWKKYHKWVGLFFSFFILMFCFSGIVLNHRTLFSKAEVSRNWMPESYHYKNWNNGIIKGTLRLPDGKILAYGNAGVWKTDSCFATFADFNRGLAEGIDNRKISNIVRVANNDIWCAGLYSIYLLNHDSWKEYPIAGNDERISDITQRGDTLVILTRSYLYTSVSPYDEFRKTELKTPENYSPKTSLFRTIWLLHSGELFGTPGKLAVDFLGVVLIVLSATGIIYTLLPPFIRRRHRKRLPVKTQAKALKTSLNWHNKLGTWLIGLTLLLSVTGMCLRPPLMIPFVLVNTRPVPGSTLDSDNPWHDKLRSIRWDASRNVWLLSSSMGFYRINDLQLPPVKLKQTPPVSPMGVNVFHPQSPDEWLIGSFSGLFVWNPSTGTVLDYYTGQPPAAVHGRPLGGSLVNGFTDDLVTREVIFEYDNGARNKENNLVLPAMPDLIKQQPMSLWNFCLELHVGRCYSPFLGVFSDLFVFISGLLLTLILISGYIVYKRHHKRSKKIRMH
  protein production: failed

## MKTSQEELLPATRRALLHRIAVAQAEGRAPSLAAAVVRGGQTVWYGSRTSVDGHAPDENVQYRIGSITKTFTAVLVLRLRDEGVLDLGDPLEKHLPGTGAGEATIAELLAHTGGLAAESPAPWWERTPGSLRPELADVLGELPLRHPVGRRHHYSNPGYTLLGALVEELRGAPWEEVLRREVLEPLGMRRTSGDPRAPHAGGWAVHPWADVMLPEPAEDLGRMAPAGQLWSTTGDLARFAVFLAQGDERVLSADSVREMRTPAAPAEAADVMSGSAYGLGMQLQYRDGRLLVGHSGSLPGFLANLTVSVEDDLAAVVLVNCTSGPMPSAVAADLVRIVAEAEPRIPEPWRPLPDVDEGVLELAGQWYWGTQAFVLRLTVDGGVSLEPLSGVGRRARLRANGDGTWTGLDGYYAGELLKAVRRPDGSVSHLDLGSFVFTRQPYDEGAPVPGGVDPEGWRGIP
  protein production: failed

## KKYSYAVTTCIKHINKNVYDGISLNELANHLEITPTYLSKLFKKEMGITLSEYIQRERVEEAKKLLTLTTYSLSDICAWLNFNDQSYFIRVFKKITSMTPRQYREKYTV
  protein production: failed

## MFLVCGEALFDIFTRADDGGSLNRLGFDAIAGGSPFNVAIGLRRLGVEAAFFAGLSTDYLGRRLRAVLEQETVNAEHLIEFDAPTTLAMVAVGSDGSPTYSFRGDGCADRQLRLEHLPELDERVRGIHVGSFSLVVQPIADTLLALVARESARRLISLDPNVRLNPAPDIQRWRTQIAAFAEHAHLIKVSDEDLHLLYPDSDPQQIAEGWLGKRTQLVIVTRGTQGASVFTRQHGTWSVPAKTVVTADTVGAGDTFQAALLTFLSERQLDTPQGLSTLSRETLDEMLNFAVGAAALTCTKVGPDLPYRHQLG
  protein production: failed

## MKPNFSRDYQLKWLFYVYCVRSEVGEEEEKKKVTKKTRKRVRFDLNVQTYEPIVPSRYENACSDDEEGKGGRSKGSSAIDKKPEDLSSRSVYPSNYRYHNCVDSFEDEDDEMGYGESDLEDEDYYTDNENDYEDDADDEDEEEEEENEQDVAPLLNPVENLAQWKAVKARPVKVKRVMKENVEEDMDDQAKPLLKEIIVNTSLSNWLASPKSLHANGSSKRSPIVDITNMENR
  protein production: failed

## ASNSQLNAMAHQIQEMFPQVPYHLVLQDLQLTRSVEITTDNILEGRIQVPF
  protein production: not failed

## MGGSFGKKGASSATAAQVPLATETTPGLMSPSEKLKLSTLTTSIATSDFYASYDFMMHSIGLTSANNISLLSTGNISLQNILSEGNHFGVQPIVSSTTANASFLAGMLMAIFPKESELEVTVYFKTPSAFNPAQLTVIGSTSIGLGISDRSGLIIENGNAFGGIVKASAATETGSTYALSTSTWYICKFKMLTDDRFKVTLYSDSGTQLYSYTSTAAMFRADNATAHIGFKTQCKTATAGISLISIDLIEFKAKVSATRAKV
  protein production: not failed

## MMQSITTFMAALGKYDFLQSALITAIMVGVMSGIIGSFIILRGMSMMGDAISHAVLPGVAVAYMLGINVLIGASVFGILAASLIGFVASRSKIKTDTSIGIVFSAFYALGFILISLAESSTNLHHILFGNILAVSDTDMMTTTVVLGLVILFVAFFYKELLITSFDPTFAKTYGLKVQLLHYALMLVLTLVTVSALQTVGIILVVAMLITPAATAFLWTERLAVMLGLSALIGVLSSVVGLYLSYTLNWASGPAIVLVAAIFFGISFIISPKQALLPTLWKGQAAARRVTA
  protein production: failed

## LVTISSTSAASLPTMPPSGYDQVRNGVPRGQVVNISYFSTATNSTRPARVYLPPGYSKDKKYSVLYLLHGIGGSENDWFEGGGRANVIADNLIAEGKIKPLIIVTPNTNAAGPGIADGYENFTKDLLNSLIPYIESNYSVYTDREHRAIAGLSMGGGQSFNIGLTNLDKFAYIGPISAAPNTYPNERLFPDGGKAAREKLKLLFIACGTNDSLIGFGQRVHEYCVANNINHVYWLIQGGGHDFNVWKPGLWNFLQMADEAGLTRDGNT
  protein production: not failed

## MSDAQLGPLRLTLLSVSARTGFCKKQQELWQRRKEAAEALGTRKVSVLLATSHSGARPAVSTMDSSAAPTNASNCTDALAYSSCSPAPSPGSWVNLSHLDGNLSDPCGPNRTDLGGRDSLCPPTGSPSMITAITIMALYSIVCVVGLFGNFLVMYVIVRYTKMKTATNIYIFNLALADALATSTLPFQSVNYLMGTWPFGTILCKIVISIDYYNMFTSIFTLCTMSVDRYIAVCHPVKALDFRTPRNAKIINVCNWILSSAIGLPVMFMATTKYRQGSIDCTLTFSHPTWYWENLLKICVFIFAFIMPVLIITVCYGLMILRLKSVRMLSGSKEKDRNLRRITRMVLVVVAVFIVCWTPIHIYVIIKALVTIPETTFQTVSWHFCIALGYTNSCLNPVLYAFLDENFKRCFREFCIPTSSNIEQQNSTRIRQNTRDHPSTANTVDRTNHQVRSL
  protein production: failed

## MYDHILLASDGTEASTNAESHAISLAAEHGAALHVLYVVDEDVYTAYSGDEYVDESEGPEHGLEETGQETLARIQADAEASGVDATTTLKHGRPAESVIETADEADVDLLVLGTKRRPAEYRSLLGSITDKVLRLSERPAVVVKTEVEE
  protein production: failed

## MKGDRERQADLSPREGPSVPRPVLLQTEPRSVFPGDTSRPWSPAALPARAPGDRWCGRRRRSPGNASYLDSDISEKSRSASEEEKSHALGACHCAENAFQDSQKSLVPSRGQKMTSGTKAKVPLTALSQKWKRDREQTLEAAYVPVVVDPRGQNPDTSIRFSFYNSQYSNSLNPFYTLQKPTCGYLYQRETDHTRKRFDVPPANLILWRT
  protein production: failed

## TSSISPAKMANGTAGTKVALRKTKQAAEKISADKISKEALLECADLLSSALTEPVPNSQLVDTGHQLLDYCSGYVDCIPQTRNKFAFREA
  protein production: failed

## MKTFIWNSNYETGVAKVDDQHQCLVEIINEYSHLLANNTTTETDIELTLNKLIDYTKFHFKDEEQLMYSVGLDTRHITHHEKLHRDILDEISTLLSDQVTDKLSIARYILDLIIHWLVYHILGTDMNMAKLEHHHHHH
  protein production: failed

## METAITRMLGIRYPIVAAPMFLVSNAPLLQAVAEAGGIGVIPSLNFRTHQAFREFLESFPEGVPFGVNLILKGNPRLEEDLEAVVERRVPLVVTSLGDPTRVVERVKAYGGVVWCDVVGLRHGRKAVEAGADALVAVACGAGGHAGRVSPFVLGPWLREELGVPVLIAGGIATGRQVLAALALGDGVYIGTRFIATLESGAPLEYKEALLRAQPEDIEYTPEVTGVPANFLRESLERFRQGGGKAWKEVYSAGHGVAFIREIPSAKEVVARLVEEYRAAKAGLP
  protein production: failed

## MVIRRLYQFCASHVVRNCSSLKCAQNIHGHNYEVEVFIETNRLDNANMALDFGLMQQEMQVFIESFDHAHHFWDKESLEFQRFIENHCVRYVKCSFNLSAESYALMFLYYLTKILQKSVFSNDEGELKVSSVRVHETKNGYAESFLKDLENPHFKSLVHDHCVSFSQGIQNLWHDKDFFNKIISDEKQCFFHAKPLHQIP
  protein production: failed

## MSLRVILFDLDGTLIDSAKDIALALEKTLKELGLEEYYPDNVTKYIGGGVRALLEKVLKDKFREEYVEVFRKHYLENPVVYTKPYPEIPYTLEALKSKGFKLAVVSNKLEELSKKILDILNLSGYFDLIVGGDTFGEKKPSPTPVLKTLEILGEEPEKALIVGDTDADIEAGKRAGTKTALALWGYVKLNSQIPDFTLSRPSDLVKLMDNHIVEFEGHHHHHH
  protein production: not failed

## MSGSPGIESVPGPELPKIEFLDRFNAKNQKFYAENDARFKDSPLLKKLLENSKLNKEKNEREIQDKYCLRGAEWGVGDCSTTGMTDEEKEKFITMLKKKTGVE
  protein production: failed

## NDTELPTYRVVSRLSLDDLIETIDEDLDREIEFSEEILDQVDTVGGLIAFEKGRIPLPGTTVTTSGLQLQAEGGRDRRGRIQVRSVLVSVLPVESLSEL
  protein production: failed
